One experiment deals with ubiquitin (UniProt P0CG48 1-76). The experiment can be described thus: crystal structure.
The next experiment deals with M1-linked di-Ub (UniProt P0CG48). The experiment can be described thus: ITC.

Numbering of substitutions follows the chain as printed. In names and notes the source's numbering stands.

B1: RNF216 (511-784, C688A, pSer719) (domain or fragment)
chain: QLIECRCCYGEFPFEELTQCADAHLFCKECLIRYAQEAVFGSGKLELSCMEGSCTCSFPTSELEKVLPQTILYKYYERKAEEEVAAAYADELVRCPSCSFPALLDSDVKRFSCPNPHCRKETCRKCQGLWKEHNGLTCEELAEKDDIKYRTSIEEKMTAARIRKCHKCGTGLIKSEGANRMSCRCGAQMCYLCRVSINGYDHFCQHPRSPGAPCQECSRCSLWTDPTEDDEKLIEEIQKEAEEEQKRKNGENTFKRIGPPLEKPVEKVQRVEAL
modifications: phosphoserine at 719
As for B1, the binding result with ubiquitin is recorded as “binds”.

B2: HOIL-1 233-510 (C460A) (domain or fragment)
chain: DEEERARLAGEEEALRQYQQRKQQQQEGNYLQHVQLDQRSLVLNTEPAECPVCYSVLAPGEAVVLRECLHTFCRECLQGTIRNSQEAEVSCPFIDNTYSCSGKLLEREIKALLTPEDYQRFLDLGISIAENRSAFSYHCKTPDCKGWCFFEDDVNEFTCPVCFHVNCLLCKAIHEQMNCKEYQEDLALRAQNDVAARQTTEMLKVMLQQGEAMRCPQCQIVVQKKDGADWIRCTVCHTEICWVTKGPRWGPGGPGDTSGGCRCRVNGIPCHPSCQNCH
On to B2, for which the binding result in the experiment with ubiquitin is “binds”.

B3: HOIL-1 233-510 (helix-RBR), wild type (domain or fragment)
chain: B2 chain with A228C
With B3, the dissociation constant Kd (usually the constant that tells how readily two partners part at equilibrium) with M1-linked di-Ub was approximately 50 µM.

The values are drawn from paper doi:10.1101/2022.10.11.511834 (bioRxiv, 2022).
